Measured values from patent US20210252150A1.
Positions count from the first letter of the chain named. Names may count otherwise.

Columns and labels:
[1] = biological target: T1, HA of A/California/04/2009 (H1N1) (influenza A virus (H1N1)), P26140; experiment: ELISA; details: remark: other sources report otherwise
[2] = biological target: T1, HA of A/California/04/2009 (H1N1) …; experiment: ELISA, recombinant HA; details: remark: other sources report otherwise
[3] = biological target: HA of A/Indonesia/5/2005 (H5N1) (influenza A virus (H5N1))
[4] = biological target: HA of A/Hong Kong/1073/99 (H9) (influenza A virus (H9))
[5] = biological target: HA of A/Netherlands/219/2003 (H7N7) (influenza A virus (H7N7))
[6] = biological target: HA of A/mallard duck/Astrakhan/263/1982 (H14N5) (influenza A virus (H14N5))
[7] = biological target: HA of A/shearwater/Western Australia/2576/1979 (H15N9) (influenza A virus (H15N9))
[8] = biological target: HA of A/Shanghai/2/2013 (H7N9) (influenza A virus (H7N9))
[9] = biological target: T1, HA of A/California/04/2009 (H1N1) …; experiment: BLI, Fab on immobilized biotinylated HA; details: remark: other sources report otherwise
[10] = biological target: T1, HA of A/California/04/2009 (H1N1) …; experiment: BLI, 1:1 global fit; Table S2 of the text prints 48 for this strain; details: remark: other sources report otherwise
[11] = biological target: T1, HA of A/California/04/2009 (H1N1) …; experiment: ELISA, recombinant HA; details: remark: other sources report otherwise; remark: listed apart in the source
[12] = biological target: HA of A/Hong Kong/1/1968 (H3N2) (influenza A virus (H3N2)), Q91MA7; details: remark: other sources report otherwise

B1: FluA-20 (hybridoma-produced IgG) (antibody, V domains shown)
VH: QVQLQESGPGLVKPSETLSLTCSVSGVSVTSDIYYWTWIRQPPGKGLEWIGYIFYNGDTNYNPSLKSRVTMSIDTSKNEFSLRLTSVTAADTAVYFCARGTEDLGYCSSGSCPNHWGQGTLVTVSS
VL: DIQMTQSPSSLSASIGDRVTITCRPSQNIRSFLNWFQHKPGKAPKLLIYAASNLQSGVPSRFSGSGSGTEFTLTIRSLQPEDFATYYCQQSYNTPPTFGQGTKVEIK
In the case of B1, the EC50 [1] is reported as 0.008 µg/mL and the EC50 [2] is reported as 0.01 µg/mL.

B2: rFluA-20 heavy chain mutant Y100aA (antibody, V domains shown)
VH: B1 VH with Y106A
VL: B1 VL
Work on B2 yielded an EC50 fold over wild-type rFluA-20 [3] greater than 100 fold, an EC50 fold over wild-type rFluA-20 [4] greater than 100 fold and an EC50 fold over wild-type rFluA-20 [5] greater than 100 fold. It also gave an EC50 fold over wild-type rFluA-20 [6] greater than 100 fold, an EC50 fold over wild-type rFluA-20 [7] greater than 100 fold and an EC50 fold over wild-type rFluA-20 [8] greater than 100 fold.

B3: FluA-20 Fab (Fab, V domains shown)
VH: B1 VH
VL: B1 VL
Work on B3 yielded a Kd [9] of 48 nM and a Kd [10] of 46 nM.

B4: rFluA-20 (recombinant FluA-20 IgG) (antibody, V domains shown)
VH: B1 VH
VL: B1 VL
B4 gave an EC50 [11] of 0.031 µg/mL and an EC50 [2] of 0.012 µg/mL.

B5: rFluA-20 heavy chain mutant T96A (antibody, V domains shown)
VH: B1 VH with T101A
VL: B1 VL
B5 was tested, and the EC50 [3] was 0.11 µg/mL, the EC50 [4] was 0.1 µg/mL and the EC50 [5] was 0.04 µg/mL. For the same binder, the EC50 [6] was 0.23 µg/mL, the EC50 [7] was 0.07 µg/mL and the EC50 [8] was 0.37 µg/mL.

B6: rFluA-20 heavy chain mutant D98A (antibody, V domains shown)
VH: B1 VH with D103A
VL: B1 VL
B6 was tested, and the EC50 fold over wild-type rFluA-20 [5] was greater than 100 fold.

B7: rFluA-20 light chain mutant Q55A (antibody, V domains shown)
VH: B1 VH
VL: B1 VL with Q55A
B7 gave an EC50 [12] of 0.08 µg/mL.

B8: rFluA-20 heavy chain mutant Y34A (antibody, V domains shown)
VH: B1 VH with Y34A
VL: B1 VL
Work on B8 yielded an EC50 fold over wild-type rFluA-20 [3] greater than 100 fold, an EC50 [4] of 0.21 µg/mL and an EC50 [5] of 0.07 µg/mL. The EC50 [6] was 0.54 µg/mL, the EC50 [7] was 0.1 µg/mL and the EC50 [8] was 0.44 µg/mL.

B9: rFluA-20 heavy chain mutant E97A (antibody, V domains shown)
VH: B1 VH with E102A
VL: B1 VL
B9 showed an EC50 fold over wild-type rFluA-20 [3] greater than 100 fold, an EC50 [4] of 0.36 µg/mL and an EC50 [5] of 0.08 µg/mL. It also gave an EC50 [6] of 0.64 µg/mL, an EC50 [7] of 0.12 µg/mL and an EC50 [8] of 1 µg/mL.
